# Measurements taken from the DeepSol protein solubility set.
# Experiment: soluble on expression in E. coli; label from the status in PepcDB or PDB records
row,Sequence,soluble on expression in E. coli
1,GMATSTDRTQEIQKLHELIKNIDYGMFTTVDDDGSLHSYPMSKSGDINSEATLWFFTYAGSHKVTEIEHHEQVNVSFSSPEQQRYVSISGTSQLVKDRNKMRELWKPELQTWFPKGLDEPDIALLKVNINQVNYWDSTSSFKPQTISF,soluble
2,GMDMKTKLQTIIGMFQITAWDETSYFESDNGAKLTQAVITQSYQGVLQGHSEIRYLMSYQDNANATFVGFEHFTGSLGDKKGSFILQHKGLFAAGVASSEFELVERSATGDFVHLVGKGHFVSTENGQANYQITLQDS,soluble
3,GMDTAKTKPFDEMFLQDEVIRPIYAEYAAWLQDVPHQQLESKRQEAELLFRRVGITFNVYGEDAGAERLIPFDVVPRILSASEWARLSDGAIQRVKALNMFLHDVYHDQEIIKAGIVPSSILANAQYRPEMFGVDVPGGVYAHIAGVDLVRTGENDFYVLEDNLRTPSGVSYMLENRKMMMRLFPELFRRYPVAPVEHYPQVLLNNLRAVAQAGVHEPTVVLLTPGAYNSAYFEHAFIAQQMGIELVEGQDLFVRNNAVYMRTTEGPKRVDVIYRRIDDDFIDPLSFRPDSMLGVPGLLSVYRNGGVTLANAVGTGVADDKDTYIYVPEMIRFYLGEEPILSNVPTYQLSKADDLKYVLDNLAELVVKEVQGSGGYGMLVGPAASKQELEDFRQRILANPANYIAQPTLALSTCPTLVETGIAPRHVDLRPFVLSGKTVSLVPGALCRVALREGSLVVNSSQGGGTKDTWILKD,soluble
4,GMEEINKYIQNSSETGGEIYNLIEELFPICRSITGNGVRKTMDIIRKHIPLEIHEVKSGTKVFDWTVPKEWNIKDAYVRNSKGEKVIDFKENNLHVMSYSVPVHKTMTLDELKPYLHTIPGNKDRIPYLTSYYKENWGFSLTQNKFDELCDDDYEVVIDSSLEDGSLTYGEYYIRGELEEEILLTTYTCHPSMCNDNLSGVALITFIAKALSKLKTKYSYRFLFAPETIGSITWLSRNEDKLKNIKMGLVATCVGDAGIKNYKRTKFGDAEIDKIVEKVLMHCGSEYYVADFFPWGSDERQFSSPGINLSVGSLMRSCYGFDGYHTSADNLCYMNKDGLADSYKTYLEVIYTIENNRTYLNLNPKCEPQLGKRGIYRMIGGGSDYPFDEFAMFWVLNMSDGKNSLLDIAYKSGMEFRRIKYAADALYRVELLKLV,soluble
5,GMEQHQVWAYQTKTHSVTLNSVDIPALAADDILVQNQAIGINPVDWKFIKANPINWSNGHVPGVDGAGVIVKVGAKVDSKMLGRRVAYHTSLKRHGSFAEFTVLNTDRVMTLPDNLSFERAAALPCPLLTAWQAFEKIPLTKQREVLIVGFGAVNNLLTQMLNNAGYVVDLVSASLSQALAAKRGVRHLYREPSQVTQKYFAIFDAVNSQNAAALVPSLKANGHIICIQDRIPAPIDPAFTRTISYHEIALGALHDFGDRQDWQILMQQGEALLTLIAQGKMEIAAPDIFRFEQMIEALDHSEQTKLKTVLTLNE,soluble
6,GMEVNRLSALTPPMGWNSWDCYGASVTEEEVLGNAEYMANHLKKYGWEYIVVDIQWYEPTANSSAYNPFAPLCMDEYGRLLPATNRFPSAKNGAGFKPLSDAIHDLGLKFGIHIMRGIPRQAVYENSPVLGSTKTAREIAHTNSICPWNTDMYGVDPTKEGAQSYYNSLFELYAQWGVDFVKVDDIAASRLYDTHLEEIKMIQRAIQACGRPMVLSLSPGPAPIKYAHHFKTNANMWRITDDFWDDWSLLYQMFERCEVWEKHIGTGHWPDCGMLPLGHIGIRSVDGPGGDRWTRFTKDEQLTMMNLWAICHSPLMFGGELRDNDEWTLSLLTNEGILSINQKSVLNRFVYREEDKVAWAANGRNGEAYVALFNLHDQQKTLQFRLDMVGIMETVQLFNVWDRSFLQSLAPSESFQIELKPHQSMMLKLSPDR,soluble
7,GMFVSDQAEAKGFIEDSSLDLLLRNYYFNRDGKSGSGDRVDWTQGFLTTYESGFTQGTVGFGVDAFGYLGLKLDGTSDKTGTGNLPVMNDGKPRDDYSRAGGAVKVRISKTMLKWGEMQPTAPVFAAGGSRLFPQTATGFQLQSSEFEGLDLEAGHFTEGKEPTTVKSRGELYATYAGETAKSADFIGGRYAITDNLSASLYGAELEDIYRQYYLNSNYTIPLASDQSLGFDFNIYRTNDEGKAKAGDISNTTWSLAAAYTLDAHTFTLAYQKVHGDQPFDYIGFGRNGSGAGGDSIFLANSVQYSDFNGPGEKSWQARYDLNLASYGVPGLTFMVRYINGKDIDGTKMSDNNVGYKNYGYGEDGKHHETNLEAKYVVQSGPAKDLSFRIRQAWHRANADQGEGDQNEFRLIVDYPLSILHHHHHHHH,soluble
8,GMIKIAIVGFGTVGQGVAELLIRKREEIEKAIGEFKVTAVADSKSSISGDFSLVEALRMKRETGMLRDDAKAIEVVRSADYDVLIEASVTRVDGGEGVNYIREALKRGKHVVTSNKGPLVAEFHGLMSLAERNGVRLMYEATVGGAMPVVKLAKRYLALCEIESVKGIFNGTCNYILSRMEEERLPYEHILKEAQELGYAEADPSYDVEGIDAALKLVIIANTIGVKASYEDVEVTGITQITPEAFQVAAEKGYTIRLIAEVSREKLKVSPRLVPFHHPLAIKGTMNAAMFKTDTAGSIFVAGRGAGKEETASAILSDLYEIYAGPR,soluble
9,GMIKKEGPGWRIIFDSSRDNFSTLIGGETWAIELDKSEWKILVEVVMELCDQYKLVKEQLMGDEDITLELERRPWLAILNGDQYGWNLRLILSASGLFNRGAEVYWPRHVTNNVVNAMRSMWDSDYL,soluble
10,GMKDNYDAPESMLTGRVMYNGEALQLRGNEAVQLQLYQHGYAKHDPINVYVNQDGMYSANLFDGEYQMITKSGNGPWTSEGRDTINVTVAGNTVQDVEVTPYYLVRDAQMTLEGNKVNASFKVEKVAGGGIDRVFFMLSTTQFVNDAEHNVDRYDETDNLDAYDETGKLYTFATRDYTDNSMFQTALKRGTLFGRICIWPKGSDQGIYSKVIRLK,soluble
11,GMKRAVVVFSGGQDSTTCLIQALQDYDDVHCITFDYGQRHRAEIEVAQELSQKLGAAAHKVLDVGLLNELATSSLTRDSIPVPDYDANAQGIPNTFVPGRNILFLTLASIYAYQVGAEAVITGVCETDFSGYPDCRDEFVKALNQAIVLGIARDIRFETPLMWLNKAETWALADYYQQLDTVRYHTLTCYNGIKGDGCGQCAACHLRANGLAQYQKDAATVMASLKQKVGLR,soluble
12,GMLEFTKRSLMNKYNINERVLELYERALNDVEKEFKYYDEIREYNQLKVLKAFQEERISESHFTNSSGYGYNDIGRDSLDRVYANIFNTESAFVRPHFVNGTHAIGAALFGNLRPNDTMMSICGMPYDTLHDIIGMDDSKKVGSLREYGVKYKMVDLKDGKVDINTVKEELKKDDSIKLIHIQRSTGYGWRKSLRIAEIAEIIKSIREVNENVIVFVDNCYGEFVEEKEPTDVGADIIAGSLIKNIGGGIATTGGYIAGKEEYVTQATFRVTVPGIGGECGSTFGVMRSLYEGLFMAPHVTIEAVKGAVFCARIMELAGFDVLPKYNDKRTDIIQAIKFNDEKKLIDFIKGIQTASPVDSFVQCEAWDMPGYEDKVIMAAGTFVQGASIELSADAPIREPYIGYLQGGLTFDHAKLGVLIALSKLIM,soluble
13,GMNLQTDQTTTTADESAIRAFHRQMIDAWNRGSGEGFAAPFSETADFITFEGTHLKGRKEIAAFHQQAFDTVVKGTRLEGEVDFVRFVNSQLALMLVVIRVILPGQTETSASRDSLPLYVVTKGDEGWQIEGLLNTRKLTLERQFFLDDFDSLSAEAQRQVTDLVASLKQSH,soluble
14,GMNNSLAFNHDTLPQKVMFGYGKSSAFLKQEVERRGSAKVMVIAGEREMSIAHKVASEIEVAIWHDEVVMHVPIEVAERARAVATDNEIDLLVCVGGGSTIGLAKAIAMTTALPIVAIPTTYAGSEATNVWGLTEAARKTTGVDLKVLPETVIYDSELTMSLPVEMSVASGLNGLAHCIDSLWGPNADPINAVLAAEGIRALNQGLPKIVANPHSIEGRDEALYGAYLAAVSFASAGSGLHHKICHTLGGTFNLPHAQTHATVLPYVLAFNAGDAPEAERRAAAAFGTDTALEGLQRLRLSVNAPKRLSDYGFEASGIAEAVDVTLEKVPANNPRPVTRENLSRLLEAALNGEDPAVLSAVLSN,soluble
15,GMPSEKQPQSKGNKMAILKLDEHLYISPQLTKADAEQIAQLGIKTIICNRPDREEESQPDFAQIKQWLEQAGVTGFHHQPVTARDIQKHDVETFRQLIGQAEYPVLAYCRTGTRCSLLWGFRRAAEGMPVDEIIRRAQAAGVNLENFRERLDNARV,soluble
16,GMSDIKKLGSSWIINWFFGFNQIPTNEDSSIYMKSVLTCAKADGVISPEEKDWALGFCASWGVADWVIEDLKTYEADEALEEVIARSPQVSMAQRDILLSAIWVSAADGELHEKEKAKIRKMATILGIKEEIVDQLEQLYYYEAALRQKRLNLLYPQKSPY,soluble
17,GMSEPVFPTPEAAEDAFYAAFEARSLDDMMAVWARDDHVACIHPLAAPLNGRAAVAAGWRSMFGAAGRFRLQVKAVHEIRQADHVIRIVDEFLTIGDETAPRPAILATNVYRREADGWRMVLHHASPLQVGAKAGADTPPVVFH,soluble
18,GMSRAPDTWILTADCPSMLGTVDVVTRYLFEQRCYVTEHHSFDDRQSGRFFIRVEFRQPDDFDEAGFRAGLAERSEAFGMAFELTAPNHRPKVVIMVSKADHCLNDLLYRQRIGQLGMDVVAVVSNHPDLEPLAHWHKIPYYHFALDPKDKPGQERKVLQVIEETGAELVILARYMQVLSPELCRRLDGWAINIHHSLLPGFKGAKPYHQAYNKGVKMVGATAHYINNDLDEGPIIAQGVEVVDHSHYPEDLIAKGRDIECLTLARAVGYHIERRVFLNANRTVVL,soluble
19,GMTARNILSYSYEEYVEKITAFHGYPAPGVLIGGFMVDLAVKNLPEGILYDAICETRTCLPDAVQLLTPCTFGNGWLTVLPMGLFAVSLYDKFTGEGVRVFLDVEKMGPWQEIRNWFLKLKTKKEQDSERLFKEIREAGPDILELRNVKLKPGFLEKKHKGKIVLCPQCREAYPAQDGELCLSCQGGSPYL,soluble
20,GMTQDNASGDQVSKQHKAFLRKLYLAHLMDDARHNLLSLGKLTGMPRRTLQDAIASFADIGIEVEFVQDGERHNAGYYRIRTWGPISSAWMDTHVDEVKSLLGVDDAVGQATAGNGA,soluble
21,GMTQKEWPLWEVFVRSKQGLEHKHCGSLHATDAQQALHMARDVYTRRQEGVSIWVVPSTAITASAPEEKPELFDPMADKIYRHPTFYQLPDEVNHM,soluble
22,GMTVRDENYFTEKYGLTRTHSDVLAAAKVVAPGRTLDLGCGNGRNSLYLAANGYDVTAWDKNPASMANLERIKAAEGLDNLQTDLVDLNTLTFDGEYDFILSTVVMMFLEAQTIPGLIANMQRCTKPGGYNLIVAAMDTPDFPCTVGFPFAFKEGELRRYYEGWDMLKYNEDVGELHRTDENGNRIKLRFATMLARKTA,soluble
23,GMVRRTRAEMEETRATLLATARKVFSERGYADTSMDDLTAQASLTRGALYHHFGDKKGLLAAVVEQIDAEMDERLQAISDTAEDDWEGFRCRCRAYLEMALEPEIQRIVLRDARAVLGGASPDSQRHCVESMQRLIDNLIRQGVVAEADPQALASLIYGSLAEAAFWIAEGEDGNARLAQGVAALELLLRGLLVKPR,soluble
24,GMWQFPLFETILIEQGQAKNISYHQQRYEKSLLKFYPKMKLQPFDLAKIIAKHTALFTHREGLIRCRIDYNHHDYVLQCFPYQQKVYRTFKPVFCDHIDYSLKFSDRTLLNNLLKQKEECDEIMIIRQGKVTDCSIGNLIFRQNNQWITPDKPLLEGTQRAKLLEQKKIIAREIFFEDLAQYEEIRLINAMNGL,soluble
